Test results taken from paper PMC13049129.

Molecular target: HnRNPA3-Myc (Homo sapiens) (UniProt P51991)
Test: EMSA
Conditions: RNA-EMSA: 40 mM Tris pH 7.4, 30 mM KCl, 1 mM MgCl2, 0.1% IGEPAL CA-630, 1 mM DTT, 10 ug/ml BSA, 37 C, 30 min; 15% polyacrylamide gel stated to contain 8 M urea.

Sequence of HnRNPA3-Myc (Homo sapiens) (P51991 whole entry): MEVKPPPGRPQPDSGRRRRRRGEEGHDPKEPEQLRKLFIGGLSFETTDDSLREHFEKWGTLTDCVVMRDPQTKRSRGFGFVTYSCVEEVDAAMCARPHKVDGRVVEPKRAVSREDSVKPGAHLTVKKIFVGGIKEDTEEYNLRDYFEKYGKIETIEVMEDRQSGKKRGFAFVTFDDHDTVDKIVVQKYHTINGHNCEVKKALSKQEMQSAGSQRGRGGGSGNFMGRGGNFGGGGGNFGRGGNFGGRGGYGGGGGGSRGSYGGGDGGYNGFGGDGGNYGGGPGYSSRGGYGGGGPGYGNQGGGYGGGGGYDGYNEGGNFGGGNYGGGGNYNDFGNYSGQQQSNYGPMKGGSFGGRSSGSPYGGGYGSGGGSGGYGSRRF

“GGGAUGUUAAAGAUGAGCGGGUGGCAGCGACAGAGCCAAAAUCAGAGCUGGAACCUGAGGAGAGAGUGUUCAAGAAGGAAGUGUAUCUUCAUACAUCACCACACCUGAAA [huORFchop RNA (105 nt)]” was tested, and the binding was “binds”.
